Laboratory results reported in patent publication US9371393B2, “Class I anti-CEA antibodies and uses thereof” (Immunomedics, Inc., priority 2009, dated 2016).

Key:
[1] = system: SUM1315 breast cancer model; assay: hMN-15 pretreatment and CPT-11 in SUM1315 breast cancer model; format: in vivo; conditions: single agent; dosages as in Example 5
Procedure: The effects of pre-treatment with naked hMN-15 CEA Mab given 3 days prior to CPT-11 treatment is examined in a SUM1315 breast cancer model (Kuperwasser et al., Cancer Res. 2005, 65:6130-38). CPT-11 alone, hMN-15 alone, and combination therapy of hMN-15+CPT-11 where the hMN-15 is administered 3 days prior to the CPT-11 are compared. Dosages are as indicated in Example 5. hMN-15 alone increases median survival time by 21% under these conditions. CPT 11 alone increases survival by 76%. By contrast, the combination therapy where hMN-15 is administered 3 days prior to CPT-11 produces a median survival time increase of an additional 58% above CPT-11 alone. […] The synergistic effect of hMN-15 antibody with CPT-11 therapy is surprising.

[2] = system: RII and RI isoforms of PKA; conditions: Gold 2006; Stokka et al. 2006; cited from earlier work
[3] = system: TT human medullary thyroid cell line tumors; assay: hMN-15 and DTIC in TT medullary thyroid cancer xenografts; format: in vivo, nu/nu mice; conditions: at 7 weeks, DTIC 75 μg/dose, hMN-15 100 μg/dose
Procedure: Tumors are propagated in female nu/nu mice (Taconic Farms, Germantown, N.Y.) at 6-8 weeks of age by s.c. injection of 2×10^8 washed TT cells, which is propagated in tissue culture. Antibodies are injected i.v., via the lateral tail vein, into the tumor-bearing animals. Tumor size is monitored by weekly measurements of the length, width, and depth of the tumor using a caliper. Tumor volume is calculated as the product of the three measurements.
To study whether naked hMN-15 can add to the efficacy of DTIC, TT bearing nude mice are given DTIC (75 μg/dose) in combination with a course of treatment of the unlabeled MAb. DTIC is administered for 3 consecutive days at 75 μg/dose as one course, beginning 2 days after s.c. injection of TT cells. hMN-15 MAb treatment is initiated 3 days prior to the first dose of DTIC, at 100 μg/dose/day for 5 days in the first two weeks, then twice weekly.

[4] = system: liver metastases of sigmoid colon cancer; assay: Sigmoid colon cancer therapy with hMN-15 and GM-CSF, patient two; format: in vivo, human; parameters: blood CEA titer / CEA titer: unit not given here
Procedure: patient two is a person who is refractive to chemotherapy with 5-fluorouracil and leucovorin to reduce their metastases to the liver found at the time of removal of their sigmoid colon cancer. […] Other radiological studies appear to be normal. Immunotherapy with humanized anti-CEA IgG (hMN-15) monoclonal antibody is begun on a weekly basis for 4 weeks, at an intravenous dose of 300 mg/m^2 infused over 2 hours. One week prior to hMN-15 therapy, the patient receives 2 subcutaneous injections of 200 μg/m^2 GM-CSF, 3 days apart, and continued twice weekly during the 4 weeks of hMN-15 therapy. After these four weeks, both hMN-15 and GM-CSF are given at the same doses every other week for an additional 3 months, but the dose of GM-CSF is increased to 250 μg/m^2. Prior to each administration of the humanized anti-CEA antibody, the patient is given diphenhydramine (50 mg orally), and acetaminophen (500 mg orally).

CEA = target: T1, CEA (Homo sapiens, UniProt P06731); assay: Competitive CEA binding against HRP-labeled murine MN-15; conditions: competition with HRP-labeled murine MN-15
T1 sequence (P06731 35-676): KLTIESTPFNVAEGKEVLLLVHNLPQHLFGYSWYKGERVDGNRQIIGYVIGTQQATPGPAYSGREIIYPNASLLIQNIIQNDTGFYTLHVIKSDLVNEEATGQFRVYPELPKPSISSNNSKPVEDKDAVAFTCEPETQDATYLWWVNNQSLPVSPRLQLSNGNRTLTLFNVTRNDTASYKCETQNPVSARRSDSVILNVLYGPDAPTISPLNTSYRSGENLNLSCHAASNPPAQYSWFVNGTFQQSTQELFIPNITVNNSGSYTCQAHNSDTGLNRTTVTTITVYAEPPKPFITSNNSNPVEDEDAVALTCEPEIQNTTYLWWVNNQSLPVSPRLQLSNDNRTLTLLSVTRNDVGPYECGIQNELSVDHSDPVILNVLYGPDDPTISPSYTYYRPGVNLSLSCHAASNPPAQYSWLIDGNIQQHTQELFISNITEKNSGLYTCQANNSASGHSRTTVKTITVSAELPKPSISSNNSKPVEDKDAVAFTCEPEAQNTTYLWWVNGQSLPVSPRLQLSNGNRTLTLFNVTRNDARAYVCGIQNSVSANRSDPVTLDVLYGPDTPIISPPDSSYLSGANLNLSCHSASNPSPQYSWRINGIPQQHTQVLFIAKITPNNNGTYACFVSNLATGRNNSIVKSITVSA
Text: To make a chimeric MN-15 antibody, the murine MN-15 variable region sequences were attached to human IgG1 constant region sequences, as described in Leung et al., Hybridoma 13:469 (1994). The sequences of the murine MN-15 VK (SEQ ID NO:9) and MN-15 VH (SEQ ID NO:10) used to construct the chimeric MN-15 (cMN-15) are shown in FIG. 2 and FIG. 3.

[5] = system: liver and lung metastases of colon cancer; assay: Combined immunotherapy and chemotherapy of metastatic colon cancer, patient one; format: in vivo, human; parameters: blood CEA titer: unit not given here
Procedure: patient one is a person presenting with liver and lung metastases of colon cancer following resection of the primary tumor. They are placed on a combined chemotherapy and immunotherapy protocol based on the Gramont schedule (de Gramont et al., J Clin Oncol. 2000, 18:2938-47), but with the addition of humanized anti-CEA monoclonal antibody IgG1 (hMN-15). Prior to infusions of the antibody, they receive 50 mg orally of diphenhydramine and 500 mg orally of acetaminophen. They receive a 2-hr infusion of leucovorin (200 mg/m^2/day) followed by a bolus of 5-fluorouracil (400 mg/m^2/day) and 22-hour continuous infusion of 5-fluorouracil (600 mg/m^2/day) for 2 consecutive days every 2 weeks, together with oxaliplatin at 85 mg/m^2 as a 2-hr infusion in 250 mol of dextrose 5%, concurrent with leukovorin on day 1 (FOLFOX4 schedule). The patient also receives anti-emetic prophylaxis with a 5-hydroxyltryptamine-3-receptor antagonist. One week prior to this 2-week chemotherapy cycle, hMN-15 monoclonal anti-CEA antibody is infused over 2 hrs at a dose of 200 mg/m^2, and repeated each week of the 2-week chemotherapy cycle, and every week thereafter for the next month with another chemotherapy cycle. Also, a subcutaneous dose of 5 μg/kg/day of G-CSF is administered once weekly beginning with the second chemotherapy cycle, and continued at this dose for the duration of immunotherapy with hMN-15 antibody, over the next 3 months.
A total of 5 cycles of chemotherapy is performed with continued administration of hMN-15 antibody and filgrastim. Thereafter, hMN-15 and filgrastim therapy is given, at the same doses, every other week for the next 3 months, without chemotherapy. The patient is staged 2 months later, and their liver and lung metastases show shrinkage by computed tomography measurements of >80 percent of disease measured in the liver and lungs, as compared to the measurements made prior to therapy. […] They are followed over the next 6 months, and their disease appears to be stable, with no new lesions found and no increase in the disease remaining in the liver and lungs. […] The patient also experiences diarrhea, mucositis, nausea and vomiting during the chemotherapy cycles, but these are not excessive.

[6] = hMN-15 with GM-CSF, restaging after another 2 months

Molecule: CCc1c2c(nc3ccc(OC(=O)N4CCC(N5CCCCC5)CC4)cc13)-c1cc3c(c(=O)n1C2)COC(=O)[C@]3(O)CC [CPT-11, irinotecan, reference compound]
- increase of median survival time [1]: 76%

Molecule: DLIEEAASRIVDAVIEQVKAAGAY [Ht-31]
- selectivity / affinity for RII versus RI isoform of PKA [2]: greater affinity for the RII isoform of PKA

Molecule: FEELAWKIAKMIWSDVFQQC [PV-38]
- selectivity / affinity for RII versus RI isoform of PKA [2]: higher affinity for RI

Molecule: LEQYANQLADQIIKEATE [RIAD]
- selectivity / affinity for RII versus RI isoform of PKA [2]: higher affinity for RI

Molecule: QIEYVAKQIVDYAIHQA [SuperAKAP-IS]
- selectivity / affinity for RII versus RI isoform of PKA [2]: five order of magnitude higher selectivity for the RII isoform of PKA compared with the RI isoform

B1: hMN-15: humanized MN-15, VK SEQ ID NO:7 and VH SEQ ID NO:8, REI/KOL frameworks, human IgG1 (antibody, V domains shown)
VH: QVQLVESGGGVVQPGRSLRLSCSSSGFALTDYYMSWVRQAPGKGLEWLGFIANKANGHTTDYSPSVKGRFTISRDNSKNTLFLQMDSLRPEDTGVYFCARDMGIRWNFDVWGQGTPVTVSS
VL: DIQLTQSPSSLSASVGDRVTMTCSASSRVSYIHWYQQKPGKAPKRWIYGTSTLASGVPARFSGSGSGTDFTFTISSLQPEDIATYYCQQWSYNPPTFGQGTKVEIKR
modifications: human IgG1 constant regions
- mice with no palpable tumor ([3]; untreated 0/10): 0/10
- mean tumor volume ([3]; untreated 1.578+0.959): 0.899+0.545 cm^3
- decrease of sum of the diameters of the measurable tumors in the liver ([4]; hMN-15 300 mg/m^2 with GM-CSF, first restaging): 40%
- adverse reactions ([4]; hMN-15 with GM-CSF): no adverse reactions to the therapy
- blood CEA titer ([4]; hMN-15 with GM-CSF, first restaging, at presentation 34 ng/mol): 18
- CEA titer [4, 6]: 10
- tumor decrease over the pre-therapy baseline [4, 6]: > 65%
- affinity for CEA compared with parent murine MN-15 (CEA): virtually identical
- dissociation constant (CEA): nanomolar range
- increase of median survival time [1]: 21%
- shrinkage of liver and lung metastases by computed tomography ([5]; hMN-15 200 mg/m^2 with FOLFOX4 schedule and G-CSF (filgrastim)): > 80%
- adverse events when only immunotherapy is administered ([5]; hMN-15 and filgrastim without chemotherapy): does not experience any adverse events
- predominant toxicity ([5]; hMN-15 with FOLFOX4 and filgrastim, during chemotherapy cycles): peripheral sensory neuropathy
- blood CEA titer ([5]; hMN-15 with FOLFOX4 and filgrastim, pre-therapy level 63 ng/mol): 9

B2: cMN-15: murine MN-15 variable regions (SEQ ID NO:9, SEQ ID NO:10) attached to human IgG1 constant regions (antibody, listed as Mus sp., V domains shown)
VL: DIQLTQSPAIMSASPGEKVTMTCSASSRVSYIHWYQQKSGTSPKRWIYGTSTLASGVPARFSGSGSGTSYSLTISSMEAEDAATYYCQQWSYNPPTFGAGTKLELKR
VH: EVRLVESGGGLVQGPGSLRLSCAASGFALTDYYMSWVRQSPGKTLEWLGFIANKANGHTTDYSPSVKGRFTISRDNSQTILYLQMNTLRTEDSATYYCARDMGIRWNFDVWGQGTTVTVSS
modifications: human IgG1 constant regions
- affinity for CEA compared with parent murine MN-15 (CEA): virtually identical
- dissociation constant (CEA): nanomolar range
